Source: the Immune Epitope Database (IEDB)

Legend:
[1] = molecular target: HLA-B*07:02; experiment: IEDB peptide-MHC binding, purified MHC/competitive/radioactivity; ≥ and ≤ were set here for values at or beyond the usual limits of such assays
[2] = molecular target: HLA-A*02:01; experiment: as above; settings: source organism: Plasmodium falciparum
[3] = molecular target: HLA-B*07:02; experiment: IEDB peptide-MHC binding, purified MHC/competitive/radioactivity; filed as Kd, often an IC50 or EC50 that approximates it; ≥ and ≤ were set here for values at or beyond the usual limits of such assays; settings: source organism: Human immunodeficiency virus 1
[4] = source organism: Human immunodeficiency virus 1

CPKVSFEPI
IC50 [1, 4]: 127 nM

GLLGVVSTV
IC50 [2]: 24.3 nM

GPKVKQWPI
Kd [3]: 5570 nM

HPVHAGPIA
IC50 [1, 4]: 57 nM

ILSVSSFLFV
IC50 [2]: 208 nM

IPIHYCAPA
IC50 [1, 4]: 445 nM

QPRAPIRPIPT
IC50 ([1]; source organism: Human herpesvirus 4 strain B95-8): 110 nM

RPPIFIRRL
IC50 ([1]; source organism: human gammaherpesvirus 4): 21 nM

TPGIRYQYNI
Kd [3]: 8620 nM

TPYAGEPAPF
IC50 ([1]; source organism: Plasmodium falciparum): 31 nM

WPLTEEKIKI
Kd [3]: 19400 nM

YPLASLRSLF
IC50 [1, 4]: 408 nM
